Assay results reported in patent US20180036445A1.

What was measured:
[1] = target: Fab/Mab (sample loaded in Example 3); assay: 10% breakthrough dynamic binding capacity, ligand on agarose column, residence time 6 min, no SIP
[2] = target: Fab/Mab (sample loaded in Example 3); assay: difference of dynamic binding capacity, after SIP minus control without SIP
[3] = target: Fab/Mab (sample loaded in Example 3); assay: 10% breakthrough dynamic binding capacity, ligand on agarose column, after 24 h in 0.1 M peracetic acid (ligand degraded by the treatment)
[4] = target: Fab/Mab (sample loaded in Example 3); assay: 10% breakthrough dynamic binding capacity, MabSelect column, residence time 6 min, no SIP
[5] = target: Fab/Mab (sample loaded in Example 3); assay: 10% breakthrough dynamic binding capacity, MabSelect Xtra column, residence time 6 min, no SIP
[6] = target: Fab/Mab (sample loaded in Example 3); assay: 10% breakthrough dynamic binding capacity, MabSelect column, after 24 h in 0.1 M peracetic acid
[7] = target: Fab/Mab (sample loaded in Example 3); assay: difference of dynamic binding capacity, after SIP minus control without SIP, MabSelect
[8] = target: Fab/Mab (sample loaded in Example 3); assay: difference of dynamic binding capacity, after SIP minus control without SIP, MabSelect Xtra
[9] = target: Fab/Mab (sample loaded in Example 3); assay: 10% breakthrough dynamic binding capacity, MabSelect Xtra column, after 24 h in 0.1 M peracetic acid
[10] = target: Fab/Mab (sample loaded in Example 3); assay: 10% breakthrough dynamic binding capacity, ligand on agarose column, after 24 h in 0.1 M peracetic acid
[11] = target: Fab (sample of Example 4); assay: static binding capacity in filter plate, after 24 h in 500 mM peracetic acid, 90 min incubation with Fab, relative to PBS control
[12] = target: Fab (sample of Example 4); assay: static binding capacity in filter plate, after 4 h in 5% H2O2, 90 min incubation with Fab, relative to PBS control
[13] = target: Fab (sample of Example 4); assay: static binding capacity in filter plate, after 4 h in 100 mM peracetic acid, 90 min incubation with Fab, relative to PBS control
[14] = target: Fab (sample of Example 4); assay: static binding capacity in filter plate, after 24 h in 5% H2O2, 10 min incubation with Fab, relative to PBS control
[15] = target: Fab (sample of Example 4); assay: static binding capacity in filter plate, after 24 h in 100 mM peracetic acid, 10 min incubation with Fab, relative to PBS control
[16] = target: Fab (sample of Example 4); assay: static binding capacity in filter plate, after 24 h in 500 mM peracetic acid, 10 min incubation with Fab, relative to PBS control
[17] = target: Fab (sample of Example 4); assay: static binding capacity in filter plate, after 4 h in 100 mM peracetic acid, 10 min incubation with Fab, relative to PBS control
[18] = target: Fab (sample of Example 4); assay: static binding capacity in filter plate, after 4 h in 500 mM peracetic acid, 90 min incubation with Fab, relative to PBS control

Chain of recombinant Protein L (rPrL) (chain): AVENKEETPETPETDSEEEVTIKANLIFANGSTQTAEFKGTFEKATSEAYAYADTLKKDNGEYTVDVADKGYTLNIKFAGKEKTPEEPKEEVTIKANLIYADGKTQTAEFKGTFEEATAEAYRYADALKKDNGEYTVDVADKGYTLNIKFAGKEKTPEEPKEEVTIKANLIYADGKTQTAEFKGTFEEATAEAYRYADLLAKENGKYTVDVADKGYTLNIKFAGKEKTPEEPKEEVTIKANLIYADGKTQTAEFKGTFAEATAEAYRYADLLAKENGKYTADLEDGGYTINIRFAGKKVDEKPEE

“single-chain camelid antibody against IgG kappa chains (KappaSelect ligand) (VHH)” showed a DBC control, no SIP [1] of 20 g/L, a ΔDBC [2] of -20 g/L and a DBC after SIP [3] of 0 g/L.
“recombinant Protein A (rPrA) (from UniProt P38507 42-327)” was tested, and the DBC control, no SIP [4] was 52 g/L, the DBC control, no SIP [5] was 59 g/L and the DBC after SIP [6] was 51 g/L. The ΔDBC [7] was -1 g/L, the ΔDBC [8] was 1 g/L and the DBC after SIP [9] was 60 g/L.
In the case of “MabSelect SuRe LX ligand (multimer of Protein Z variant with substituted asparagines) (designed binder)”, the DBC control, no SIP [1] is reported as 63 g/L, the ΔDBC [2] is reported as 0 g/L and the DBC after SIP [10] is reported as 63 g/L.
In the case of “MabSelect SuRe ligand (multimer of Protein Z variant with substituted asparagines) (designed binder)”, the DBC control, no SIP [1] is reported as 50 g/L, the ΔDBC [2] is reported as 1 g/L and the DBC after SIP [10] is reported as 51 g/L.
Substance recombinant Protein L (rPrL) has a Relative remaining SBC (%) [11] of 102%, a DBC control, no SIP [1] of 30 g/L and a ΔDBC [2] of -1 g/L. It also gave a Relative remaining SBC (%) [12] of 102%, a Relative remaining SBC (%) [13] of 101% and a DBC after SIP [10] of 29 g/L. It also gave a Relative remaining SBC (%) [14] of 102%, a Relative remaining SBC (%) [15] of 107% and a Relative remaining SBC (%) [16] of 97%. The Relative remaining SBC (%) [17] was 109% and the Relative remaining SBC (%) [18] was 103%.
